One block for each binder: values may come before it.
Experiments:
[1] = target: T1, prolyl-4-hydroxylase 2 (PHD2) (human, UniProt Q9GZT9 2-426, limits assumed); assay: preliminary experiments, method not described
T1 construct: Endogenous protein in human placental tissues

[2] = target: HIF-1αP402R-P564R; assay: Western blot of lysates of transfected JEG3 cells, β-actin as loading control
Experimental: Thus, the antibodies may be useful in predicting the severity of preeclampsia. The monoclonal antibodies were affinity purified, their IgG isotype was determined and their specificity validated (see Table 2 and FIGS. 7 and 8). The antibodies were validated using the following strategy. […] Following transfection with the various HIF-1α constructs, JEG-3 choriocarcinoma and HEK293 cells were cultured with proteosomal inhibitor MG-132 to prevent HIF degradation and Western blot and immunofluorescence analyses were used to establish the specificity and utility of the various clones. Validation experiments were run in parallel using both purified and non-purified clones to rule out potential changes in antibody performance following purification. The Western blot results unequivocally indicate that clones 1H1, 6H4 and 5A5 recognize HIF-P402^OH; clone 6A9 recognizes HIF-P564^OH; clone 7D6 recognizes both HIF-P402^OH and HIF-P64^OH; and clone 7E3 is excellent to detect total HIF-1α. […] Immunofluorescence analysis was conducted in cells and tissue sections.

T1 sequence (Q9GZT9 2-426 limits assumed): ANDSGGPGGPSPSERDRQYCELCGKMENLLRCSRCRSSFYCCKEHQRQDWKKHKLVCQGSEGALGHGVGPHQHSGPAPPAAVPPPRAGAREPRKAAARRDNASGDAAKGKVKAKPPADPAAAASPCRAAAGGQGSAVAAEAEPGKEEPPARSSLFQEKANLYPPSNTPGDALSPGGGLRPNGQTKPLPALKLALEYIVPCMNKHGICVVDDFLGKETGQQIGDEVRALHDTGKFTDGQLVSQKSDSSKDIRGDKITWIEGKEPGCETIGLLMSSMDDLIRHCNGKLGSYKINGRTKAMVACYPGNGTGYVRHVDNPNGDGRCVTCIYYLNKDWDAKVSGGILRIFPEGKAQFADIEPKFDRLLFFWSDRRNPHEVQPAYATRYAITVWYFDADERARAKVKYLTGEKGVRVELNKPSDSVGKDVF
Chain of HIF-1αP402R-P564R (chain, as listed by the source P402R P564R P402R P564R limits assumed): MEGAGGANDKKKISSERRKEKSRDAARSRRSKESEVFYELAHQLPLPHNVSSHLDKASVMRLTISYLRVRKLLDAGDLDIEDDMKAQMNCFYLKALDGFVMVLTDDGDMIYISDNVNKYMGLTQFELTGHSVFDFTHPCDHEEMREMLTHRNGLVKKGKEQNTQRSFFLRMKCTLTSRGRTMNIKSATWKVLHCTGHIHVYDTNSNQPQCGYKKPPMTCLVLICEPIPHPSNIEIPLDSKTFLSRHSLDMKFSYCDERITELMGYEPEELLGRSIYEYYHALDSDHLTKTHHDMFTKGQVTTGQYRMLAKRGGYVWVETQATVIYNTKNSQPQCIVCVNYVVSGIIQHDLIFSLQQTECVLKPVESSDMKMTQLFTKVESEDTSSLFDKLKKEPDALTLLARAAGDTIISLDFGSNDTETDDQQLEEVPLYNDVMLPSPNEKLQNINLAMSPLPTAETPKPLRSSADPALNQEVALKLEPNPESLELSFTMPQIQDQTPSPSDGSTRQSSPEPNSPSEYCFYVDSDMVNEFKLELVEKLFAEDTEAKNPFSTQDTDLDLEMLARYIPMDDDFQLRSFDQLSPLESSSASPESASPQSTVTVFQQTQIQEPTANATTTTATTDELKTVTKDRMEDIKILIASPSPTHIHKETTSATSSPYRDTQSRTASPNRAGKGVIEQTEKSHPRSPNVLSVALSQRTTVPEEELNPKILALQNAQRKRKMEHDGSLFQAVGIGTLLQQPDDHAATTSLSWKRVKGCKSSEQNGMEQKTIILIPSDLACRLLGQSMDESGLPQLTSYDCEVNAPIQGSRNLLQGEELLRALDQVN

binding result [1]: binds
B1: prolyl-4-hydroxylase 3 (PHD3) (enzyme, human, UniProt Q9H6Z9 1-239, looked up)
chain: MPLGHIMRLDLEKIALEYIVPCLHEVGFCYLDNFLGEVVGDCVLERVKQLHCTGALRDGQLAGPRAGVSKRHLRGDQITWIGGNEEGCEAISFLLSLIDRLVLYCGSRLGKYYVKERSKAMVACYPGNGTGYVRHVDNPNGDGRCITCIYYLNKNWDAKLHGGILRIFPEGKSFIADVEPIFDRLLFFWSDRRNPHEVQPSYATRYAMTVWYFDAEERAEAKKKFRNLTRKTESALTED
notes: Endogenous protein in human placental tissues; the method of the preliminary experiment is not described

binding result [2]: no binding
B2: monoclonal antibody clone 6A9 (antibody, V domains shown)
VH: DVQLVESGGGLVQPGGSRKLSCAASGFTFSSFGMHWVRQAPEKGLEWVAFISSGSHTIFYADTVKGRFTISRDNPKNTLFLQMTSLRSEDTAMYYCTRDYNAYWGQGTLVTVSA
VL: DVLMTQTPLSLPVSLGDQASISCRSSQSIVHSNGNTYLEWYLQKPGQSPKLLIYKVSNRFSGVPDRFSGSGSGTDFTLKISRVEAEDLGVYYCFQGTHVPLTFGAGTKLEL
notes: also called anti-HIF-1αP564^OH
